Measurements published in publication PMC10681739, “High-throughput data and modeling reveal insights into the mechanisms of cooperative DNA-binding by transcription factor proteins”.

Biological target: RUNX1 (Homo sapiens, UniProt Q01196)
Test: gcPBM; 2 nM RUNX1
Settings: tags: N-terminal GST (pDEST15), kept (PMC6008103); label: surface-attached array probe

RUNX1, sequence (Q01196 whole entry): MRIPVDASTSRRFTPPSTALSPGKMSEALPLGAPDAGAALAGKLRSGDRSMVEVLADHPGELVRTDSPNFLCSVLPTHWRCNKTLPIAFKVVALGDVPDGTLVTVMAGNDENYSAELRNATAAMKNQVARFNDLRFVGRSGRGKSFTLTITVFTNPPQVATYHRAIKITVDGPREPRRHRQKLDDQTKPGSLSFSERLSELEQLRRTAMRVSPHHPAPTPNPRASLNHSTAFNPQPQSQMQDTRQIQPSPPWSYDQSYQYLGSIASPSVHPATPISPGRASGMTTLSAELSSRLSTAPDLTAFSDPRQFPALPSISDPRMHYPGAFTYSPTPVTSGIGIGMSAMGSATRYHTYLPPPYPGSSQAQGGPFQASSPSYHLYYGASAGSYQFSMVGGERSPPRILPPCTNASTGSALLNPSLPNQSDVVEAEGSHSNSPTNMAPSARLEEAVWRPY

B1: Table S3 B row 2433 (dsDNA)
DNA 1: GGGTTTTGTGGTTAGCAAGTTCCAGCTCCCGTCGCA
DNA 2: TGCGACGGGAGCTGGAACTTGCTAACCACAAAACCC
binding signal: 18900 PBM fluorescence, median of replicate spots

B2: Table S3 B row 3390 (dsDNA)
DNA 1: TTTCATATTTGTGGTTTTGGTGTTGCCTCTTACACA
DNA 2: TGTGTAAGAGGCAACACCAAAACCACAAATATGAAA
binding signal: 18800 PBM fluorescence, median of replicate spots

B3: Table S3 B row 1768 (dsDNA)
DNA 1: TGGTTGTGGTTTGGAGATTCTGATGTCATTTGCTGT
DNA 2: ACAGCAAATGACATCAGAATCTCCAAACCACAACCA
binding signal: 18000 PBM fluorescence, median of replicate spots

B4: Table S3 B row 1134 (dsDNA)
DNA 1: GTTAAGCTGCGGTCAGACCTAAGGGAGGATCTGGCT
DNA 2: AGCCAGATCCTCCCTTAGGTCTGACCGCAGCTTAAC
binding signal: 17500 PBM fluorescence, median of replicate spots

B5: Table S3 B row 3040 (dsDNA)
DNA 1: GCCTTTTGTGGTTTGTACCACTGCCTGCCTTTTCTG
DNA 2: CAGAAAAGGCAGGCAGTGGTACAAACCACAAAAGGC
binding signal: 17300 PBM fluorescence, median of replicate spots

B6: Table S3 B row 1695 (dsDNA)
DNA 1: GCACAAAACCGCACAAACAGCCTGAAGCACAGCCCC
DNA 2: GGGGCTGTGCTTCAGGCTGTTTGTGCGGTTTTGTGC
binding signal: 16300 PBM fluorescence, median of replicate spots

B7: Table S3 B row 1866 (dsDNA)
DNA 1: TCTGCGGTCAGCTGACTGTGCCAGAGTGCCGCGGGG
DNA 2: CCCCGCGGCACTCTGGCACAGTCAGCTGACCGCAGA
binding signal: 16100 PBM fluorescence, median of replicate spots

B8: Table S3 B row 48 (dsDNA)
DNA 1: CCTGCTGCGGTCAGCCCTGTCTCTTTCTGTTTCTGC
DNA 2: GCAGAAACAGAAAGAGACAGGGCTGACCGCAGCAGG
binding signal: 16100 PBM fluorescence, median of replicate spots

B9: Table S3 B row 320 (dsDNA)
DNA 1: AGAAACCACAAAACCCCATTTGAAATTCAGCCGTGC
DNA 2: GCACGGCTGAATTTCAAATGGGGTTTTGTGGTTTCT
binding signal: 15200 PBM fluorescence, median of replicate spots

B10: Table S3 B row 2601 (dsDNA)
DNA 1: CTGCTTGTGGTTTTGGTCTGCAGCAAGCTGGGCTGC
DNA 2: GCAGCCCAGCTTGCTGCAGACCAAAACCACAAGCAG
binding signal: 14600 PBM fluorescence, median of replicate spots

B11: Table S3 B row 741 (dsDNA)
DNA 1: CTTAAAACCACAACACAATAACACCAGAGGACATGA
DNA 2: TCATGTCCTCTGGTGTTATTGTGTTGTGGTTTTAAG
binding signal: 14300 PBM fluorescence, median of replicate spots

B12: Table S3 B row 531 (dsDNA)
DNA 1: ATAGCTTGTGGTTTATGGGTCAGCAAGTTGAGGGTG
DNA 2: CACCCTCAACTTGCTGACCCATAAACCACAAGCTAT
binding signal: 13900 PBM fluorescence, median of replicate spots

B13: Table S3 B row 2332 (dsDNA)
DNA 1: TGTCAAAGTTTGTGGTGAGTGGCTTGCTGGAGACCC
DNA 2: GGGTCTCCAGCAAGCCACTCACCACAAACTTTGACA
binding signal: 13400 PBM fluorescence, median of replicate spots

B14: Table S3 B row 3051 (dsDNA)
DNA 1: GGCTTGTGGTTTGGTGATTGTACGTCCTTATTGATA
DNA 2: TATCAATAAGGACGTACAATCACCAAACCACAAGCC
binding signal: 13000 PBM fluorescence, median of replicate spots

B15: Table S3 B row 158 (dsDNA)
DNA 1: GTCTCAACCGCAAGGAGGTGTTACGTCCTCTTTTAC
DNA 2: GTAAAAGAGGACGTAACACCTCCTTGCGGTTGAGAC
binding signal: 12800 PBM fluorescence, median of replicate spots

B16: Table S3 B row 2269 (dsDNA)
DNA 1: ACTGTTATTGTGGTTTTTGGGGACTGCCTCTTTGTC
DNA 2: GACAAAGAGGCAGTCCCCAAAAACCACAATAACAGT
binding signal: 12500 PBM fluorescence, median of replicate spots

B17: Table S3 B row 226 (dsDNA)
DNA 1: TTTCTTTCTGTGGTTTATCCTTATTTGCTGGCTTCG
DNA 2: CGAAGCCAGCAAATAAGGATAAACCACAGAAAGAAA
binding signal: 12500 PBM fluorescence, median of replicate spots

B18: Table S3 B row 1277 (dsDNA)
DNA 1: GGGGTGCGGTTTAGGGCGGGTTTTTTGCGCCTTGGA
DNA 2: TCCAAGGCGCAAAAAACCCGCCCTAAACCGCACCCC
binding signal: 12400 PBM fluorescence, median of replicate spots

B19: Table S3 B row 2387 (dsDNA)
DNA 1: CATTTCTGTTGCGGTTGGCAGCGTCTCCATCCACGG
DNA 2: CCGTGGATGGAGACGCTGCCAACCGCAACAGAAATG
binding signal: 12200 PBM fluorescence, median of replicate spots

B20: Table S3 B row 2138 (dsDNA)
DNA 1: TGTGAAACCGCAGGGGTTCAGGGAGGCAGTGTAAGC
DNA 2: GCTTACACTGCCTCCCTGAACCCCTGCGGTTTCACA
binding signal: 11000 PBM fluorescence, median of replicate spots

B21: Table S3 B row 2418 (dsDNA)
DNA 1: TTCTCTGCACTGCGGTTTACTCAGAAAGAAGACAAC
DNA 2: GTTGTCTTCTTTCTGAGTAAACCGCAGTGCAGAGAA
binding signal: 10900 PBM fluorescence, median of replicate spots

B22: Table S3 B row 2123 (dsDNA)
DNA 1: CTCTGAACGTCCTCTCTTTTAACCACAACTTACTAC
DNA 2: GTAGTAAGTTGTGGTTAAAAGAGAGGACGTTCAGAG
binding signal: 10800 PBM fluorescence, median of replicate spots

B23: Table S3 B row 378 (dsDNA)
DNA 1: GCCTGCGGTTTGGGTGCTGTGACCGTACGGGGGCGG
DNA 2: CCGCCCCCGTACGGTCACAGCACCCAAACCGCAGGC
binding signal: 10500 PBM fluorescence, median of replicate spots

B24: Table S3 B row 71 (dsDNA)
DNA 1: CCTTTGTTGTGGTTTTTGCAGAAAGAGAAGGGTTAG
DNA 2: CTAACCCTTCTCTTTCTGCAAAAACCACAACAAAGG
binding signal: 10300 PBM fluorescence, median of replicate spots

B25: Table S3 B row 2012 (dsDNA)
DNA 1: TTTTTGTGTTTTTGTGGTTTCTTCCGATCTTAGTCA
DNA 2: TGACTAAGATCGGAAGAAACCACAAAAACACAAAAA
binding signal: 9430 PBM fluorescence, median of replicate spots

B26: Table S3 B row 2442 (dsDNA)
DNA 1: GTGAAAAAGTCTGTGGTTTTGTTTCTTGAACACCTG
DNA 2: CAGGTGTTCAAGAAACAAAACCACAGACTTTTTCAC
binding signal: 9320 PBM fluorescence, median of replicate spots

B27: Table S3 B row 1694 (dsDNA)
DNA 1: CTGCAAACCACAAAACACCTGACTGCTACGTAAGAT
DNA 2: ATCTTACGTAGCAGTCAGGTGTTTTGTGGTTTGCAG
binding signal: 9300 PBM fluorescence, median of replicate spots

B28: Table S3 B row 1550 (dsDNA)
DNA 1: TGACCTTTGTGGTTTGGTCAGCAAGTGGGGTACTGG
DNA 2: CCAGTACCCCACTTGCTGACCAAACCACAAAGGTCA
binding signal: 9070 PBM fluorescence, median of replicate spots

B29: Table S3 B row 1212 (dsDNA)
DNA 1: GCTTTTCTGTGGTTTTTCTCACACGGGAATTGAGAG
DNA 2: CTCTCAATTCCCGTGTGAGAAAAACCACAGAAAAGC
binding signal: 8950 PBM fluorescence, median of replicate spots

B30: Table S3 B row 1255 (dsDNA)
DNA 1: GTCCAACCGCAGCCAGGCAAGCACACCCTGCCCCAC
DNA 2: GTGGGGCAGGGTGTGCTTGCCTGGCTGCGGTTGGAC
binding signal: 8530 PBM fluorescence, median of replicate spots

B31: Table S3 B row 2108 (dsDNA)
DNA 1: GCTCGTTTGTGGTTACTGACACCCGGCCTTCATTTC
DNA 2: GAAATGAAGGCCGGGTGTCAGTAACCACAAACGAGC
binding signal: 8520 PBM fluorescence, median of replicate spots

B32: Table S3 B row 1104 (dsDNA)
DNA 1: TTTCTGTGGTTTGGTTTCTATAGAGACACTTGCTGT
DNA 2: ACAGCAAGTGTCTCTATAGAAACCAAACCACAGAAA
binding signal: 8510 PBM fluorescence, median of replicate spots

B33: Table S3 B row 3404 (dsDNA)
DNA 1: TTGGTCTTGTGGTTTTGCAAGGCAGGGGTGATATAT
DNA 2: ATATATCACCCCTGCCTTGCAAAACCACAAGACCAA
binding signal: 8240 PBM fluorescence, median of replicate spots

B34: Table S3 B row 586 (dsDNA)
DNA 1: CTTGTCCCTTGTGGTTTTTTGCATTTGCTGTTCCCT
DNA 2: AGGGAACAGCAAATGCAAAAAACCACAAGGGACAAG
binding signal: 7790 PBM fluorescence, median of replicate spots

B35: Table S3 B row 2560 (dsDNA)
DNA 1: TGAGGTTGTGGTTAGGCAGGACGAAGCCGTTTGTAG
DNA 2: CTACAAACGGCTTCGTCCTGCCTAACCACAACCTCA
binding signal: 7390 PBM fluorescence, median of replicate spots

B36: Table S3 B row 871 (dsDNA)
DNA 1: ATGACCGATCAACCGCAAAGGCCGGGAATGCGTCAG
DNA 2: CTGACGCATTCCCGGCCTTTGCGGTTGATCGGTCAT
binding signal: 7280 PBM fluorescence, median of replicate spots

B37: Table S3 B row 730 (dsDNA)
DNA 1: GTGCCTGACCACAAACCAACATTGCCTGTCTCAATT
DNA 2: AATTGAGACAGGCAATGTTGGTTTGTGGTCAGGCAC
binding signal: 6950 PBM fluorescence, median of replicate spots

B38: Table S3 B row 2093 (dsDNA)
DNA 1: GTTAACCGCACTGCCGCTGGCTGGGTGTCCGCGGCA
DNA 2: TGCCGCGGACACCCAGCCAGCGGCAGTGCGGTTAAC
binding signal: 6840 PBM fluorescence, median of replicate spots

B39: Table S3 B row 1223 (dsDNA)
DNA 1: ACTGCTCAAACCACAAACGATAGCAGCAAAGGCCTG
DNA 2: CAGGCCTTTGCTGCTATCGTTTGTGGTTTGAGCAGT
binding signal: 6810 PBM fluorescence, median of replicate spots

B40: Table S3 B row 1736 (dsDNA)
DNA 1: CTCCTGTGGTTTCTAAACTGTCAGCATGTTGGCTTG
DNA 2: CAAGCCAACATGCTGACAGTTTAGAAACCACAGGAG
binding signal: 6800 PBM fluorescence, median of replicate spots

B41: Table S3 B row 2134 (dsDNA)
DNA 1: CACCTTGTGGTTTCTCTGAGTGTCACACCTCCCCAG
DNA 2: CTGGGGAGGTGTGACACTCAGAGAAACCACAAGGTG
binding signal: 6600 PBM fluorescence, median of replicate spots

B42: Table S3 B row 1633 (dsDNA)
DNA 1: CCTTTACGTCCTTTTACTTCTAACCACAGAATTAAA
DNA 2: TTTAATTCTGTGGTTAGAAGTAAAAGGACGTAAAGG
binding signal: 6510 PBM fluorescence, median of replicate spots

B43: Table S3 B row 518 (dsDNA)
DNA 1: GACCCACTGCGGTCATGCTGCTCCCTGCCCAACCCG
DNA 2: CGGGTTGGGCAGGGAGCAGCATGACCGCAGTGGGTC
binding signal: 6470 PBM fluorescence, median of replicate spots

B44: Table S3 B row 2945 (dsDNA)
DNA 1: GCTCCTCACTGCGGTCACAGCCACATGCTGCAGAGC
DNA 2: GCTCTGCAGCATGTGGCTGTGACCGCAGTGAGGAGC
binding signal: 6290 PBM fluorescence, median of replicate spots

B45: Table S3 B row 2477 (dsDNA)
DNA 1: GGTGCGGTTAAGGCGAGGCTCCTTCTTTACTGTGAC
DNA 2: GTCACAGTAAAGAAGGAGCCTCGCCTTAACCGCACC
binding signal: 6190 PBM fluorescence, median of replicate spots
